Assay results from patent US20240216513A1, “FATTY ACID-BIFUNCTIONAL DEGRADER CONJUGATES AND THEIR METHODS OF USE” (Novartis AG, priority 2021, published 2024).

What was measured:
[1] = BTK FAC plasma stability assay, mouse plasma; type: in vitro ADME; conditions: for Plasma stability (h) mouse: incubation to 24 h
Protocol: (§1) Plasma stability was conducted in Dulbecco's PBS buffer, mouse plasma, rat plasma or human plasma frozen with K3-EDTA from BiolVT). Thawed plasma was centrifuged prior to warming for 5 minutes at 37° C. Working solutions were prepared from 10 mM DMSO solution to 500 µM in acetonitrile:water (1:1); 2 µL of working solution was added to 198 µL blank plasma or PBS and mixed manually. 4×45 µL of spiked matrix was aliquoted into glass incubation plates (96-well DW glass microplate) and sealed with blue silicon/PTFE seal; then incubated on a Thermo shaker (38° C. 300 RPM). Samples were prepared at 0, 2, 6 and 24 h timepoints, by protein precipitation with chilled acetonitrile containing internal standard Glyburide (0.2 µM). Precipitated samples were shaken for 10 minutes and stored at 4° C. until completion of the study. Following precipitation of the terminal sample, samples were frozen at −80° C. for 1 hour. Samples were then thawed prior to centrifugation (20 minutes, 4500 RPM at 4° C.). 50 µL of supernatant of each sample was transferred to 384 well analysis plate containing 30 µL of water. Semi quantitative analysis (analyte: internal standard peak area ratio) was performed by LC-MS/MS using a Sciex QTrap 5500.

[2] = biological target: T1, BTK C481S (Homo sapiens, UniProt Q06187, C481S); assay: PD screen in TMD8 BTK C481S mutant tumor-bearing mice, BTK levels and compound concentrations in blood and tumor; type: in vivo, mouse; conditions: i.v.; 25 umol/kg
T1 construct: endogenous in cells; host or cells: TMD8 BTK C481S mutant tumour xenografts in mice
T1 sequence (Q06187 whole entry C481S): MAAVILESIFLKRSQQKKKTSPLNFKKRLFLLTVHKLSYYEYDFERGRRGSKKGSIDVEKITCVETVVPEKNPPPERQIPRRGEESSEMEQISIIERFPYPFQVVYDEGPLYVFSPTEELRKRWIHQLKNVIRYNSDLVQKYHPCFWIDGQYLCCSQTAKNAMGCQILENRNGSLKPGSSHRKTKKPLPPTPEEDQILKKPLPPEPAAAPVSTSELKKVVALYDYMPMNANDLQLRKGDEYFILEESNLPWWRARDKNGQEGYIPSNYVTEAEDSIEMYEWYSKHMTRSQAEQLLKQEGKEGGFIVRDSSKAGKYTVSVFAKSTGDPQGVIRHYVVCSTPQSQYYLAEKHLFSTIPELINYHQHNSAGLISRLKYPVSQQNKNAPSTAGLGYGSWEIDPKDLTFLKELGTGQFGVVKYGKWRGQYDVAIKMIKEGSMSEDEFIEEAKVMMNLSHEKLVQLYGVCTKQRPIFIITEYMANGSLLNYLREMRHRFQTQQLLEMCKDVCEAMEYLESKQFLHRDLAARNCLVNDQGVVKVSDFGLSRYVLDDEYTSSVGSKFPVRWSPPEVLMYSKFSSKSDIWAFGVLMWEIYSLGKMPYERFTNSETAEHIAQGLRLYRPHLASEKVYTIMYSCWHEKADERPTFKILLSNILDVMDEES
Protocol: All animal studies were conducted in accordance with ethics and procedures covered by permit nos. BS-1975 issued by the Kantonales Veterinäramt Basel-Stadt and in strict adherence to guidelines of the Eidgenössisches Tierschutzgesetz and the Eidgenössische Tierschutzverordnung, Switzerland. All animals had access to food and water ad libitum and were identified with transponders. They were housed in a specific pathogen-free facility with a 12-h light/12-h dark cycle. For PD screen experiments in TMD8 BTK C481S mutant tumor-bearing mice, FAC was injected once. Animals were randomized into groups of 2 and tissue samples collected at day 0, 4, 7 and in some studies day 10 as well. Blood samples were collected and tumors were excised, weighed, frozen in liquid nitrogen and cryogenic dry pulverized with the CryoPrep™ system (model CP-02, Covaris). Concentrations of compounds in blood and tumors were determined by UPLC/MS-MS and BTK levels were analyzed by Meso Scale Discovery.

[3] = BTK FAC plasma stability assay, rat plasma; type: in vitro ADME; conditions: for Plasma stability (h) rat: incubation to 24 h
Protocol: as §1

[4] = BTK FAC plasma stability assay, PBS buffer arm; type: physicochemical; conditions: for Plasma stability (h) PBS: incubation to 24 h
Protocol: as §1

[5] = BTK FAC plasma stability assay, dog plasma; type: in vitro ADME
[6] = BTK FAC plasma stability assay, cyno plasma; type: in vitro ADME, cynomolgus monkey

| Structure (SMILES) | % Release of degrader after 24 h mouse [1] [%] | Plasma stability (h) mouse [1] [h] | Duration of BTK degradation in mouse ≥90% [2] [days] | % Release of degrader after 24 h rat [3] [%] | Plasma stability (h) rat [3] [h] | % Release of degrader after 24 h PBS [4] [%] | Plasma stability (h) PBS [4] [h] | Plasma stability (h) dog [5] [h] | % Release of degrader after 24 h dog [5] [%] | Plasma stability (h) cyno [6] [h] | % Release of degrader after 24 h cyno [6] [%] |
| --- | --- | --- | --- | --- | --- | --- | --- | --- | --- | --- | --- |
| CCCCCCCCCCCN(C(=O)CCCCCCCCCC(=O)O)C(CCC(=O)NCCOCCOCCOCCOCCOCCOCCOCCOCCOCCOCCOCCOCCC(=O)N[C@@H](C)C(=O)OC(C)(C)c1ccc(C(=O)Nc2cc(F)cc(-c3ncnc4[nH]c(-c5ccc(CCN6CCC7(CC6)CCN(C(=O)c6ccc(OC)c(N8CCC(=O)NC8=O)c6)CC7)cc5)cc34)c2C)c(F)c1)C(=O)O (stereo partly drawn) [Example A16, (5S)-50-Carboxy-2-(4-((3-(6-(4-(2-(9-(3-(2,4-dioxotetrahydropyrimidin-1(2H)-yl)-4-methoxybenzoyl)-3,9-diazaspiro[5.5]undecan-3-yl)ethyl)phenyl)-7H-pyrrolo[2,3-d]pyrimidin-4-yl)-5-fluoro-2-methylphenyl)carbamoyl)-3-fluorophenyl)-2,5-dimethyl-4,7,47,52-tetraoxo-51-undecyl-3,10,13,16,19,22,25,28,31,34,37,40,43-tridecaoxa-6,46,51-triazadohexacontan-62-oic acid] | 1.9 | >48 | 4 | 11 | >48 | 2 | >48 | 31.2 | 5 | – | – |
| CCCCCCCCCCCN(C(=O)CCCCCCCCCC(=O)O)C(CCC(=O)NCCOCCOCCOCCOCCOCCOCCOCCOCCOCCOCCOCCOCCC(=O)N[C@H](C)C(=O)OC(C)(C)c1ccc(C(=O)Nc2cc(F)cc(-c3ncnc4[nH]c(-c5ccc(CCN6CCC7(CC6)CCN(C(=O)c6ccc(OC)c(N8CCC(=O)NC8=O)c6)CC7)cc5)cc34)c2C)c(F)c1)C(=O)O (stereo partly drawn) [Example A17, (5R)-50-Carboxy-2-(4-((3-(6-(4-(2-(9-(3-(2,4-dioxotetrahydropyrimidin-1(2H)-yl)-4-methoxybenzoyl)-3,9-diazaspiro[5.5]undecan-3-yl)ethyl)phenyl)-7H-pyrrolo[2,3-d]pyrimidin-4-yl)-5-fluoro-2-methylphenyl)carbamoyl)-3-fluorophenyl)-2,5-dimethyl-4,7,47,52-tetraoxo-51-undecyl-3,10,13,16,19,22,25,28,31,34,37,40,43-tridecaoxa-6,46,51-triazadohexacontan-62-oic acid] | 2.3 | >48 | 4 | 2.5 | >48 | 1.2 | >48 | 33.3 | 3.7 | – | – |
| CCCCCCCCCCCN(C(=O)CCCCCCCCCC(=O)O)C(CCC(=O)NCCOCCOCCOCCOCCOCCOCCOCCOCCOCCOCCOCCOCCC(=O)NCc1ccc(C(=O)OC(C)(C)c2ccc(C(=O)Nc3cc(F)cc(-c4ncnc5[nH]c(-c6ccc(CCN7CCC8(CC7)CCN(C(=O)c7ccc(OC)c(N9CCC(=O)NC9=O)c7)CC8)cc6)cc45)c3C)c(F)c2)cn1)C(=O)O (stereo not drawn) [Example A25, 46-Carboxy-1-(5-(((2-(4-((3-(6-(4-(2-(9-(3-(2,4-dioxotetrahydropyrimidin-1(2H)-yl)-4-methoxybenzoyl)-3,9-diazaspiro[5.5]undecan-3-yl)ethyl)phenyl)-7H-pyrrolo[2,3-d]pyrimidin-4-yl)-5-fluoro-2-methylphenyl)carbamoyl)-3-fluorophenyl)propan-2-yl)oxy)carbonyl)pyridin-2-yl)-3,43,48-trioxo-47-undecyl-6,9,12,15,18,21,24,27,30,33,36,39-dodecaoxa-2,42,47-triazaoctapentacontan-58-oic acid] | 20.9 | 17.8 | – | 1.5 | 35.7 | 2.2 | >48 | >48 | 1.1 | >48 | 1.1 |
| CCCCCCCCCCCN(C(=O)CCCCCCCCCC(=O)O)[C@@H](CCC(=O)NCCOCCOCCOCCOCCOCCOCCOCCOCCOCCOCCOCCOCCC(=O)NCCCC(=O)OC(C)(C)c1ccc(C(=O)Nc2cc(F)cc(-c3ncnc4[nH]c(-c5ccc(CCN6CCC7(CC6)CCN(C(=O)c6ccc(OC)c(N8CCC(=O)NC8=O)c6)CC7)cc5)cc34)c2C)c(F)c1)C(=O)O [Example A27, (S)-52-Carboxy-2-(4-((3-(6-(4-(2-(9-(3-(2,4-dioxotetrahydropyrimidin-1(2H)-yl)-4-methoxybenzoyl)-3,9-diazaspiro[5.5]undecan-3-yl)ethyl)phenyl)-7H-pyrrolo[2,3-d]pyrimidin-4-yl)-5-fluoro-2-methylphenyl)carbamoyl)-3-fluorophenyl)-2-methyl-4,9,49,54-tetraoxo-53-undecyl-3,12,15,18,21,24,27,30,33,36,39,42,45-tridecaoxa-8,48,53-triazatetrahexacontan-64-oic acid] | 13.7 | 28.6 | – | 2 | – | 0.3 | >48 | >48 | 0.5 | 26.6 | 0.4 |
| COc1ccc(C(=O)N2CCC3(CCN(CCc4ccc(-c5cc6c(-c7cc(F)cc(NC(=O)c8ccc(C(C)(C)OC(=O)CNC(=O)CCOCCOCCOCCOCCOCCOCCOCCOCCOCCOCCOCCOCCNC(C)=O)cc8F)c7C)ncnc6[nH]5)cc4)CC3)CC2)cc1N1CCC(=O)NC1=O [Example A33, 2-(4-((3-(6-(4-(2-(9-(3-(2,4-Dioxotetrahydropyrimidin-1(2H)-yl)-4-methoxybenzoyl)-3,9-diazaspiro[5.5]undecan-3-yl)ethyl)phenyl)-7H-pyrrolo[2,3-d]pyrimidin-4-yl)-5-fluoro-2-methylphenyl)carbamoyl)-3-fluorophenyl)propan-2-yl (2-oxo-6,9,12,15,18,21,24,27,30,33,36,39-dodecaoxa-3-azadotetracontan-42-oyl)glycinate] | 27.7 | 5.1 | – | 16.7 | 2.3 | 4.8 | >48 | 32 | 10.4 | 45.7 | 8.1 |
| COCCOCCOCCOCCOCCOCCOCCOCCOCCOCCOCCOCCC(=O)NCC(=O)OC(C)(C)c1ccc(C(=O)Nc2cc(F)cc(-c3ncnc4[nH]c(-c5ccc(CCN6CCC7(CC6)CCN(C(=O)c6ccc(OC)c(N8CCC(=O)NC8=O)c6)CC7)cc5)cc34)c2C)c(F)c1 [Example A34, 2-(4-((3-(6-(4-(2-(9-(3-(2,4-Dioxotetrahydropyrimidin-1(2H)-yl)-4-methoxybenzoyl)-3,9-diazaspiro[5.5]undecan-3-yl)ethyl)phenyl)-7H-pyrrolo[2,3-d]pyrimidin-4-yl)-5-fluoro-2-methylphenyl)carbamoyl)-3-fluorophenyl)propan-2-yl (2,5,8,11,14,17,20,23,26,29,32,35-dodecaoxaoctatriacontan-38-oyl)glycinate] | 26.2 | 6.8 | – | 42.2 | 5.3 | 5.2 | >48 | >48 | 5.3 | 30.6 | 13.9 |
